Measured values published in US20240400614A1, “CLEAVABLE PEPTIDES AND METHODS OF USE THEREOF” (Bright Peak Therapeutics AG, priority 2023, published 2024).
Square brackets hold non-standard residues; d marks the D form. Ends that are not written are not given here. Tyr(3-NO2) = N[C@@H](Cc1ccc(O)c([N+](=O)[O-])c1)C(=O)O; Nle = CCCC[C@H](N)C(=O)O; 2Abz = Nc1ccccc1C(=O)O

What was measured:
Type in all cases: biochemical
[1] = molecular target: T1, matriptase (Homo sapiens, UniProt Q9Y5Y6); assay: FRET peptide cleavage efficiency with matriptase; conditions: 200 uM linker, 1 ug/ml protease, 37° C., buffer B pH 9.0
T1 construct: purchased R&D Systems 3946-SEB
T1 sequence (Q9Y5Y6 615-855 limits assumed): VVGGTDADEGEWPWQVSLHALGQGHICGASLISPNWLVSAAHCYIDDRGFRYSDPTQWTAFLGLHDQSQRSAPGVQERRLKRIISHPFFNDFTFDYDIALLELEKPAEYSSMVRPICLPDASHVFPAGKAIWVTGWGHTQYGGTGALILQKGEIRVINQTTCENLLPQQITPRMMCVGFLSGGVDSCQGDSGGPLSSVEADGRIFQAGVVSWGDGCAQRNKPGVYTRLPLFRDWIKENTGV

[2] = molecular target: Kallikrein-3 (Homo sapiens, UniProt P07288); assay: FRET peptide cleavage efficiency with Kallikrein-3; conditions: peptide 200 uM, Kallikrein-3 2 μg/ml, 37° C., pH 8
[3] = molecular target: T2, MMP-9 (Homo sapiens, UniProt P14780); assay: FRET peptide cleavage efficiency with MMP-9 (standard pH 7.5; also pH 6.5); conditions: for % cleavage MMP-9 t = 15 min: t = 15 min (Table 9); for % cleavage MMP-9 t = 60 min: t = 60 min (Table 9); for % cleavage MMP-9 t = 120 min: t = 120 min (Table 9)
T2 construct: purchased SIGMA PF024

[4] = molecular target: T3, MMP-2 (Homo sapiens, UniProt P08253); assay: FRET peptide cleavage efficiency with MMP-2
T3 construct: purchased SIGMA PF023
T3 sequence (P08253 110-660): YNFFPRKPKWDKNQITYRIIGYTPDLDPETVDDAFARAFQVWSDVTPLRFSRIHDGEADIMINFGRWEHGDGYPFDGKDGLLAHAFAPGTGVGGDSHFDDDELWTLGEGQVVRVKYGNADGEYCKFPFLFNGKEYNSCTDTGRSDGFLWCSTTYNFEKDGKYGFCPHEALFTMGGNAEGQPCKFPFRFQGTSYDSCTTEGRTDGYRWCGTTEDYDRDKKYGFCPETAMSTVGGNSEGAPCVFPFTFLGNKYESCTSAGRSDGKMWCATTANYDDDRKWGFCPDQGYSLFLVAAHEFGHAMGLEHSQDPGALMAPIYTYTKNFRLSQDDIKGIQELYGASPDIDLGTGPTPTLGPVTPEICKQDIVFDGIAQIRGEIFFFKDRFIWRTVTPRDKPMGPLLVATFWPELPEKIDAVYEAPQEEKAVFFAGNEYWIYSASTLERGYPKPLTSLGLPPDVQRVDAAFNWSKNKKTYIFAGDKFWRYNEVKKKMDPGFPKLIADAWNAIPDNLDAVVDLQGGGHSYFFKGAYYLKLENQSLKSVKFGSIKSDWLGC

[5] = molecular target: T4, MMP-7 (Homo sapiens, UniProt P09237); assay: FRET peptide cleavage efficiency with MMP-7 (standard pH 7.5; also pH 6.5); conditions: for % cleavage MMP-7 t = 15 min: t = 15 min (Table 9); for % cleavage MMP-7 t = 60 min: t = 60 min (Table 9); for % cleavage MMP-7 t = 120 min: t = 120 min (Table 9)
T4 construct: purchased SIGMA CC1059
T4 sequence (P09237 95-267): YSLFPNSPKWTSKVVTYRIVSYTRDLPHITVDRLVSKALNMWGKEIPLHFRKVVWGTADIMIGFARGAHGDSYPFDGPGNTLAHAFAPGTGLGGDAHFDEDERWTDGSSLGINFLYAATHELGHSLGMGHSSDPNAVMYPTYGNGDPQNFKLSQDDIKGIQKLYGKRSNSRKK

[6] = molecular target: uPA (Homo sapiens, UniProt P00749); assay: FRET peptide cleavage efficiency with uPA; conditions: 200 uM linker, 1 ug/ml protease, 37° C., buffer A pH 8.5
[7] = t = 15 min, 200 uM linker, 1 ug/ml protease, 37° C., buffer C pH 7.5
[8] = t = 60 min, 200 uM linker, 1 ug/ml protease, 37° C., buffer C pH 7.5
[9] = t = 120 min, 200 uM linker, 1 ug/ml protease, 37° C., buffer C pH 7.5

Sequence of Kallikrein-3 (P07288 25-261, species assumed): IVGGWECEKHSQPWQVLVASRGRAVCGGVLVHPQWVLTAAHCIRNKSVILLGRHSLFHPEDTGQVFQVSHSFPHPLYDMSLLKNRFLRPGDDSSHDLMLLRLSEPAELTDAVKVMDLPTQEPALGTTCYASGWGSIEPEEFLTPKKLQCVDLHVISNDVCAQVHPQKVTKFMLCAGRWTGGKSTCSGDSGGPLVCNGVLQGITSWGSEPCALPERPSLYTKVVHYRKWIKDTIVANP
T2 sequence (P14780 94-707): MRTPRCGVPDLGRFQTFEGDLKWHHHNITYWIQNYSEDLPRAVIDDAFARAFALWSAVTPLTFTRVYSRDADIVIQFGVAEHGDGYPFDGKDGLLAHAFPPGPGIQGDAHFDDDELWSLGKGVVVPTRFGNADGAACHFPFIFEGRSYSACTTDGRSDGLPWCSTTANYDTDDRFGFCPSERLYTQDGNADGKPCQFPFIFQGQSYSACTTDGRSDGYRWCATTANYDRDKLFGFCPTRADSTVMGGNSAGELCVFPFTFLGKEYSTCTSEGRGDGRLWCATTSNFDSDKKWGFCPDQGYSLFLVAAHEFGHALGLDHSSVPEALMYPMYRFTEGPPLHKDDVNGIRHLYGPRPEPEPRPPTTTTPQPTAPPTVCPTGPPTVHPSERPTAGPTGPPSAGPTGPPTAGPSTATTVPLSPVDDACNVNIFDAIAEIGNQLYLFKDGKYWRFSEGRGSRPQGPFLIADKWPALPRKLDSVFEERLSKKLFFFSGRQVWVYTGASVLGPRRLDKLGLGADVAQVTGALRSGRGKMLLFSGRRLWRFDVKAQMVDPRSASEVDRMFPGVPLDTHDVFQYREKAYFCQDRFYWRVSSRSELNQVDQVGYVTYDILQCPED

Substance	% cleavage Matriptase t = 15 min [1]	% cleavage Matriptase t = 60 min [1]	% cleavage Matriptase t = 120 min [1]	Kallikrein-3 t = 1 h % cleavage [2]	Kallikrein-3 t = 3 h % cleavage [2]	Kallikrein-3 t = 6 h % cleavage [2]	Kallikrein-3 t = 8 h % cleavage [2]	% cleavage MMP-2 t = 15 min [4, 7]	% cleavage MMP-2 t = 60 min [4, 8]	% cleavage MMP-2 t = 120 min [4, 9]	% cleavage uPA t = 15 min [6]	% cleavage uPA t = 60 min [6]	% cleavage uPA t = 120 min [6]	further results
RGRRHSSKLQPLGYFGKL ([2Abz]RGRRHSSKLQPLGYFGKL[Tyr(3-NO2)]-NH2) [LNK062]	66%	100%	100%	28%	79%	100%	100%	71%	100%	100%	0%	0%	0%	% cleavage MMP-9 t = 15 min [3]: 41%; % cleavage MMP-9 t = 60 min [3]: 100%; % cleavage MMP-9 t = 120 min [3]: 100%; % cleavage MMP-2 t = 15 min ([4]; t = 15 min (Table 9)): 71%; % cleavage MMP-2 t = 60 min ([4]; t = 60 min (Table 9)): 100%; % cleavage MMP-2 t = 120 min ([4]; t = 120 min (Table 9)): 100%; % cleavage MMP-7 t = 15 min [5]: 0%; % cleavage MMP-7 t = 60 min [5]: 0%; % cleavage MMP-7 t = 120 min [5]: 0%
RGRRHSSKLQ ([2Abz]RGRRHSSKLQ[Tyr(3-NO2)]-NH2) [LNK052]	60%	100%	100%	8%	31%	55%	67%	1%	2%	4%	0%	0%	0%	% cleavage MMP-9 t = 15 min [3]: 0%; % cleavage MMP-9 t = 60 min [3]: 0%; % cleavage MMP-9 t = 120 min [3]: 0%; % cleavage MMP-2 t = 15 min ([4]; t = 15 min (Table 9)): 1%; % cleavage MMP-2 t = 60 min ([4]; t = 60 min (Table 9)): 2%; % cleavage MMP-2 t = 120 min ([4]; t = 120 min (Table 9)): 4%; % cleavage MMP-7 t = 15 min [5]: 0%; % cleavage MMP-7 t = 60 min [5]: 0%; % cleavage MMP-7 t = 120 min [5]: 0%
GSSVYSGR ([2Abz]GSSVYSGR[Tyr(3-NO2)]-NH2) [LNK080]	2%	6%	10%	16%	41%	68%	79%	1%	3%	5%	4%	17%	28%	–
RRLNYSL ([2Abz]RRLNYSL[Tyr(3-NO2)]-NH2) [LNK074]	2%	6%	10%	23%	59%	87%	96%	1%	5%	9%	0%	0%	0%	–
GSSYYSGA ([2Abz]GSSYYSGA[Tyr(3-NO2)]-NH2) [LNK079]	0%	0%	0%	34%	75%	99%	100%	10%	42%	70%	0%	0%	0%	–
RRLHYSL ([2Abz]RRLHYSL[Tyr(3-NO2)]-NH2) [LNK073]	1%	3%	5%	20%	51%	79%	91%	1%	4%	6%	0%	0%	0%	–
ISQYSSAT ([2Abz]ISQYSSAT[Tyr(3-NO2)]-NH2) [LNK070]	0%	0%	0%	0%	0%	0%	0%	0%	0%	0%	0%	0%	0%	–
KSKQHSL ([2Abz]KSKQHSL[Tyr(3-NO2)]-NH2) [LNK077]	0%	0%	0%	9%	30%	56%	69%	3%	4%	6%	0%	0%	0%	–
RSSYYSL ([2Abz]RSSYYSL[Tyr(3-NO2)]-NH2) [LNK076]	0%	0%	0%	0%	0%	0%	0%	19%	69%	92%	0%	0%	0%	–
SS-Nle-YSSAG ([2Abz]SS[Nle]YSSAG[Tyr(3-NO2)]-NH2) [LNK081]	0%	0%	0%	27%	62%	87%	94%	3%	11%	19%	0%	0%	0%	–
HSSKLQL ([2Abz]HSSKLQL[Tyr(3-NO2)]-NH2) [LNK078]	0%	0%	0%	10%	34%	64%	79%	3%	6%	8%	0%	0%	0%	–
